Data published in article PMC10236585.

Biological target: mu-FGF5-Flag (FGF5 p. L191S) (rabbit)
Test: co-IP; HEK293T cells co-transfected with FGFR1 and FGF5-Flag or mu-FGF5-Flag; lysed 48 h later (50 mM Tris pH 7.4, 150 mM NaCl, 0.2 mM EDTA, 2 mM EGTA, 0.5% Igepal CA-630, 10% glycerol); anti-Flag IP resin overnight at 4 °C; immunoblot with anti-FGFR1 and anti-Flag; densitometry of FGFR1 in the IP normalised to FGF5 or mu-FGF5

fold decline in binding ability to FGFR1 against FGF5: 0.49 fold
Substance: FGFR1 (fibroblast growth factor receptor 1)
